Data on 6 molecules can be found in patent US11230719B2, “Retroviral vector having immune-stimulating activity” (DENOVO BIOPHARMA LLC, priority 2014, dated 2022).

Assay [1] has as its system HA-L2g cells transduced with pBA9b-hIFNg-yCD2 vector. The assay is described as follows: MTS cell viability of HA-L2g cells transduced with pBA9b-hIFNg-yCD2. Format: cell-based, human. The protocol: The concentration PALA required to kill HA-L2g cells transduced with pBA9b-hIFNg-yCD2 vector is determined. Cells are seeded at 1e3 cells in 96-well plates the day before. At 24 hour post cell seeding, PALA at 1, 10, 50 and 100 μM are added to the culture for 4 consecutive days followed MTS assay to determine the cell viability. […] A range of cytosine concentrations are also determined (0.2, 1, 5 10 mM) in culture by performing the same experiment described above.

Another assay has as its system CT-26. The assay is described as follows: mIFNg-induced MHC Class I upregulation in CT-26 cells (flow cytometry). Format: cell-based, mouse. As to conditions: vs purified recombinant protein from E. coli. The protocol: (§1) To verify the bioactivity of recombinant hIFNg and mIFNg produced from the virus producer cell, upregulation of MHC Class I cell surface expression by flow cytometry was performed. Supernatant of known IFNg concentration were incubated with species-matched mouse colon carcinoma cell line, CT-26 or human fibrosarcoma cell line, HT1080. The degree of upregulation measured by mean fluorescent intensity (MFI) was compared to a standard which are purified recombinant protein expressed from E. coli. […] The recombinant hIFNg produced from the virus producer cells are 3-5 fold higher than that produced from E. coli (FIG. 2B). The difference is likely due to the differences in amino acid composition as well as glycosylation pattern.
For orientation: A flow cytometer gives signals particle by particle.

A further assay concerns CTLL-2. The assay is described as follows: IL-2 bioactivity, CTLL-2 proliferation (3H-thymidine incorporation). As to conditions: produced by HA-L2 cells; vs recombinant IL-2 from E. coli. Format: cell-based, mouse. As to the method:
CTLL-2 cell growth depends greatly on the presence of IL-2. The bioactivity of IL-2 is determined by the level of ^3H-thymidine incorporation into the DNA of proliferating cells. […] In addition, the level of CD expression from pBA9b-IFNg-yCD2 transduced HA-L2 cells is also detected by immunoblotting using an antibody against CD.
In general terms: Dividing cells build labelled thymidine or BrdU into new DNA.

In the next assay the test system is TGFβ1, 2 and 3. The assay is described as follows: TGFβ1, 2 and 3 gene expression (Taqman) in cancer cell lines before and after IFNγ treatment. As to conditions: panel of cancer cell lines including glioma. The format is cell-based, human. An excerpt:
A panel of cancer cell lines including glioma cell lines were surveyed for their TGFβ1, 2 and 3 expression before and after IFNγ treatment using human TGF isoform-specific Taqman primers (Life Technology). […] Some expression more TGFβ1 and others express more TGFβ2. In all cases, TGFβ3 expression is low. In contrast to IDO1 and PDL1, TGFβ1, 2 and 3 expression is not induced by IFNγ.
(Quantitative PCR measures a nucleic acid by following its amplification.)

A further assay concerns PDL1. The assay is described as follows: PD-L1 cell surface expression in cancer cell lines before and after IFNγ induction. The format is cell-based, human. Conditions: panel of cancer cell lines including glioma. An excerpt: Its expression can be further induced by IFNγ. A panel of cancer cell lines including glioma cell lines is surveyed for their PDL1 expression (anti-human PD-L1 antibody, eBioscience) before and after IFNγ induction.

The subject of a further assay is IDO1. The assay is described as follows: IDO1 protein expression in glioma cell lines after IFNγ induction. Format: cell-based, human. As to conditions: panel of glioma cell lines; level of induction varies. An excerpt: A panel of glioma cell lines were surveyed for their IDO1 expression after IFNγ induction. […] GAPDH (anti-human GAPDH at 1:500, Cell Signaling) detection was included as a loading control.

A further assay concerns HT1080. The assay is described as follows: hIFNg-induced MHC Class I upregulation in HT1080 cells (flow cytometry). Format: cell-based, human. As to conditions: MFI. As to the method: as §1

Regarding `O=C(O)C[C@H](NC(=O)CP(=O)(O)O)C(=O)O` [PALA, N-(phosphonacetyl)-L-aspartate], the “cell viability with PALA” value in assay [1] (1, 10, 50 and 100 μM, 4 consecutive days) was “sensitive to PALA at 10 μM and plateau at 50 μM”. As to `Nc1cc[nH]c(=O)n1` [cytosine], the “cell viability with cytosine” value in assay [1] (0.2, 1, 5, 10 mM) was “can tolerate cytosine in all concentrations tested”.

B1: recombinant mIFNg produced by the virus producer cells: mouse IFNg in supernatant of virus producer cells (protein, UniProt P01580 23-155, looked up)
Interferon gamma: HGTVIESLESLNNYFNSSGIDVEEKSLFLDIWRNWQKDGDMKILQSQIISFYLRLFEVLKDNQAISNNISVIESHLITTFFSNSKAKKDAFMSIAKFEVNNPQVQRQAFNELIRVVHQLLPESSLRKRKRSRC
As to B1, in the assay with CT-26, the “bioactivity (MHC Class I upregulation, MFI)” value was “comparable to that of recombinant mIFNg produced by E. coli”.

B2: mIL-2: recombinant mouse IL-2 produced by the HA-L2 cells (protein, UniProt P04351 21-169, looked up)
Interleukin-2: APTSSSTSSSTAEAQQQQQQQQQQQQHLEQLLMDLQELLSRMENYRNLKLPRMLTFKFYLPKQATELKDLQCLEDELGPLRHVLDLTQSKSFQLEDAENFISNIRVTVVKLKGSDNTFECQFDDESATVVDFLRRWIAFCQSIISTSPQ
On to B2, for which the IL-2 bioactivity entry in the assay on CTLL-2 is “comparable”.

B3: IFNγ: interferon gamma used to induce IDO1 and PDL1 expression in cell lines (protein, UniProt P01579 24-161, looked up)
Interferon gamma: QDPYVKEAENLKKYFNAGHSDVADNGTLFLGILKNWKEESDRKIMQSQIVSFYFKLFKNFKDDQSIQKSVETIKEDMNVKFFNSNKKKRDDFEKLTNYSVTDLNVQRKAIHELIQVMAELSPAAKTGKRKRSQMLFRG
As for B3, the “TGFβ1, 2 and 3 expression induced by IFNγ” value in the assay on TGFβ1, 2 and 3 is recorded as “not induced”. The “PDL1 expression further induced by IFNγ” value in the assay on PDL1 was “most of the cells lines, but not all, tested here are responsive”. Moreover, the “IDO1 expression after IFNγ induction” value with IDO1 is recorded as “upregulated”.

B4: recombinant hIFNg produced from the virus producer cells: human IFNg in supernatant of virus producer cells (protein, UniProt P01579 24-161, looked up)
Interferon gamma: B3 Interferon gamma
On to B4, for which, in the assay with HT1080, the “bioactivity higher than that produced from E. coli” value is recorded as 3-5 fold.
